Residue numbers refer to the chain shown, from its start.

The target of the test is T1, soluble human CD3 epsilon chain (human, UniProt P07766 23-126).
T1 construct: also called CD3ε
Description: SPR. For orientation: SPR reads the build-up and loss of mass on a sensor chip optically.

T1 sequence (P07766 23-126 limits assumed): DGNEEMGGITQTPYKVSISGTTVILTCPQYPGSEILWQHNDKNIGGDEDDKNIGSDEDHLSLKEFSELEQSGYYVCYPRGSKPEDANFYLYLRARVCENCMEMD

B1: TR01H057-E22Hh/none-Hi-Kn010G3/L0000-k0 (antibody, V domains shown)
VH: QVQLVESGGGLVQPGRSLRLSCAASGFTFSNAWMHWVRQAPGKGLEWVAQIKDKSQNYATYYAESVKGRFTISRDDSKNSLYLQMNSLKTEDTAVYYCRYVHYSASYGVDAWGQGTTVTVSS
VL: DIVMTQSPLSLPVTPGEPASISCRSSQSLVHSNRNTYLHWYQQKPGQAPRLLIYKVSNRFSGVPDRFSGSGSGTDFTLKISRVEAEDVGVYYCGQGTQVPYTFGQGTKLEIKR
notes: one-arm
The Kd is the constant that tells how readily two partners part at equilibrium. Low readings indicate higher affinity, high ones lower affinity. Consider B1, for which the dissociation constant Kd worked out at 112 nM.

B2: TR01H076-E22Hh/none-Hi-Kn010G3/L0000-k0 (antibody, V domains shown)
VH: B1 VH with L11V, R16G, D75A, L81I, S104A, A111Y
VL: B1 VL
notes: one-arm
Molecule B2 displayed a Kd of 47.8 nM.

B3: TR01H065-E22Hh/none-Hi-Kn010G3/L0000-k0 (antibody, V domains shown)
VH: B1 VH with L81I, S104A
VL: B1 VL
notes: one-arm
B3 gave a dissociation constant Kd of 43.1 nM.

B4: TR01H067-E22Hh/none-Hi-Kn010G3/L0203-k0 (antibody, V domains shown)
VH: B1 VH with S104A
VL: B1 VL with L29P, L38I
notes: one-arm
Molecule B4 registered a Kd of 47.9 nM.

B5: TR01H070-E22Hh/none-Hi-Kn010G3/L0000-k0 (antibody, V domains shown)
VH: B1 VH with L11V, R16G, S104A, A111Y
VL: B1 VL
notes: one-arm
With B5, the Kd amounted to 120 nM.

B6: TR01H067-E22Hh/none-Hi-Kn010G3/L0000-k0 (antibody, V domains shown)
VH: B1 VH with S104A
VL: B1 VL
notes: one-arm
Molecule B6 had a Kd of 71.5 nM.

B7: TR01H074-E22Hh/none-Hi-Kn010G3/L0000-k0 (antibody, V domains shown)
VH: B1 VH with L11V, R16G, D75A, L81I, S104A, A111I
VL: B1 VL
notes: one-arm
Turning to B7, binding was characterised by a dissociation constant (Kd) of 29.1 nM.

B8: TR01H066-E22Hh/none-Hi-Kn010G3/L0000-k0 (antibody, V domains shown)
VH: B1 VH with D75A, S104A
VL: B1 VL
notes: one-arm
In turn, B8 showed a Kd of 60.2 nM.

B9: TR01H071-E22Hh/none-Hi-Kn010G3/L0222-k0 (antibody, V domains shown)
VH: B1 VH with Q56N, D75A, L81I, S104A, A111I
VL: B1 VL with L29P, L38I, H39Q, G94Y
notes: one-arm
In the case of B9, the Kd was determined as 10.4 nM.

B10: TR01H082-E22Hh/none-Hi-Kn010G3/L0000-k0 (antibody, V domains shown)
VH: B1 VH with S104A, S106G
VL: B1 VL
notes: one-arm
Turning to B10, the dissociation constant (Kd) was found to be 73.7 nM.

B11: TR01H082-E22Hh/none-Hi-Kn010G3/L0212-k0 (antibody, V domains shown)
VH: B1 VH with S104A, S106G
VL: B1 VL with S25P, L29P, G94Y
notes: one-arm
B11: the affinity, expressed as Kd, was 4.75 nM.

B12: TR01H067-E22Hh/none-Hi-Kn010G3/L0212-k0 (antibody, V domains shown)
VH: B1 VH with S104A
VL: B1 VL with S25P, L29P, G94Y
notes: one-arm
For B12, the equilibrium dissociation constant (Kd) stood at 5.88 nM.

B13: TR01H061-E22Hh/none-Hi-Kn010G3/L0222-k0 (antibody, V domains shown)
VH: B1 VH with D75A, L81I, S104A, A111I
VL: B1 VL with L29P, L38I, H39Q, G94Y
notes: one-arm
B13 displayed a dissociation constant (Kd) of 18.8 nM.

B14: TR01H082-E22Hh/none-Hi-Kn010G3/L0203-k0 (antibody, V domains shown)
VH: B1 VH with S104A, S106G
VL: B1 VL with L29P, L38I
notes: one-arm
For B14, binding was put at a Kd of 40.7 nM.

B15: TR01H081-E22Hh/none-Hi-Kn010G3/L0201-k0 (antibody, V domains shown)
VH: B1 VH with D75A, L81I, S104A, S106G, A111I
VL: B1 VL with S28P, L29P
notes: one-arm
On to B15, for which the dissociation constant Kd turned out to be 9.46 nM.

B16: TR01H064-E22Hh/none-Hi-Kn010G3/L0000-k0 (antibody, V domains shown)
VH: B1 VH with A23S, D75A, L81I, S104A
VL: B1 VL
notes: one-arm
For the molecule B16, the Kd was determined as 30.7 nM.

B17: TR01H081-E22Hh/none-Hi-Kn010G3/L0011-k0 (antibody, V domains shown)
VH: B1 VH with D75A, L81I, S104A, S106G, A111I
VL: B1 VL with S28P
notes: one-arm
B17 gave a Kd of 13.5 nM.

B18: TR01H082-E22Hh/none-Hi-Kn010G3/L0011-k0 (antibody, V domains shown)
VH: B1 VH with S104A, S106G
VL: B1 VL with S28P
notes: one-arm
In turn, B18 registered a Kd of 59.5 nM.

B19: TR01H067-E22Hh/none-Hi-Kn010G3/L0011-k0 (antibody, V domains shown)
VH: B1 VH with S104A
VL: B1 VL with S28P
notes: one-arm
With B19, the equilibrium dissociation constant (Kd) is 71.8 nM.

B20: TR01H071-E22Hh/none-Hi-Kn010G3/L0000-k0 (antibody, V domains shown)
VH: B1 VH with Q56N, D75A, L81I, S104A, A111I
VL: B1 VL
notes: one-arm
Consider B20, for which the Kd came to 8.85 nM.

B21: TR01H082-E22Hh/none-Hi-Kn010G3/L0201-k0 (antibody, V domains shown)
VH: B1 VH with S104A, S106G
VL: B1 VL with S28P, L29P
notes: one-arm
On to B21, for which the Kd worked out at 44.9 nM.

B22: TR01H063-E22Hh/none-Hi-Kn010G3/L0000-k0 (antibody, V domains shown)
VH: B1 VH with L11V, R16G, D75A, L81I, S104A
VL: B1 VL
notes: one-arm
Molecule B22 returned a Kd of 43.5 nM.

B23: TR01H068-E22Hh/none-Hi-Kn010G3/L0000-k0 (antibody, V domains shown)
VH: B1 VH with L11V, R16G, S104A
VL: B1 VL
notes: one-arm
The molecule B23 registered a Kd of 101 nM.

B24: TR01H075-E22Hh/none-Hi-Kn010G3/L0000-k0 (antibody, V domains shown)
VH: B1 VH with S104A, A111Y
VL: B1 VL
notes: one-arm
Molecule B24 showed a dissociation constant Kd of 98.8 nM.

B25: TR01H067-E22Hh/none-Hi-Kn010G3/L0222-k0 (antibody, V domains shown)
VH: B1 VH with S104A
VL: B1 VL with L29P, L38I, H39Q, G94Y
notes: one-arm
The molecule B25 registered a Kd of 76.3 nM.

B26: TR01H067-E22Hh/none-Hi-Kn010G3/L0201-k0 (antibody, V domains shown)
VH: B1 VH with S104A
VL: B1 VL with S28P, L29P
notes: one-arm
As to B26, the affinity, expressed as Kd, was 59.3 nM.

B27: TR01H081-E22Hh/none-Hi-Kn010G3/L0000-k0 (antibody, V domains shown)
VH: B1 VH with D75A, L81I, S104A, S106G, A111I
VL: B1 VL
notes: one-arm
As to B27, the affinity, expressed as Kd, was 15.6 nM.

B28: TR01H069-E22Hh/none-Hi-Kn010G3/L0000-k0 (antibody, V domains shown)
VH: B1 VH with L11V, R16G, S104A, A111I
VL: B1 VL
notes: one-arm
On to B28, for which the affinity, expressed as Kd, was 71.1 nM.

B29: TR01H073-E22Hh/none-Hi-Kn010G3/L0000-k0 (antibody, V domains shown)
VH: B1 VH with S104A, A111I
VL: B1 VL
notes: one-arm
In the case of B29, the dissociation constant Kd is 59.7 nM.

B30: TR01H061-E22Hh/none-Hi-Kn010G3/L0000-k0 (antibody, V domains shown)
VH: B1 VH with D75A, L81I, S104A, A111I
VL: B1 VL
notes: one-arm
On to B30, for which binding was characterised by a dissociation constant (Kd) of 17.1 nM.

B31: TR01H058-E22Hh/none-Hi-Kn010G3/L0000-k0 (antibody, V domains shown)
VH: B1 VH with A111Y
VL: B1 VL
notes: one-arm
B31: the equilibrium dissociation constant (Kd) came out at 115 nM.

B32: TR01H072-E22Hh/none-Hi-Kn010G3/L0000-k0 (antibody, V domains shown)
VH: B1 VH with D75A, L81I, S104A, A111I
VL: B1 VL
notes: one-arm
Consider B32, for which binding was put at a Kd of 20.3 nM.
